Data on 25 sequences can be found in the DeepSol protein solubility set.

This series in a line: soluble on expression in E. coli; label from the status in PepcDB or PDB records.
Take “MDNKIMLRNRYISKIQNKLRDLTDSINFLSEIDQAILNQTAGAGPGAAGPGAAPDRSSTINLQALREKLTTLNTDDGPTRTAIRDKTAAIQTSIRDINLKLEELMKNINTSAGKLADAVSAIPTPTDDLGAAGAAGAAGAAGAAAGAGAGAA”: the “soluble on expression in E. coli” value is “not soluble”.
For “MGSDKIHHHHHHMKPPIQLPLGVRLRDDATFINYYPGANAAALGYVERLCEADAGWTESLIYLWGKQGVGRSHLLQAATHRFQQRGEPAVYLPLAQLLDRGVELLDYLAQYELVCIDDLHVIAGKADWEEAMFHLFNRLRDSGRRLLLAASASPRELPIKLPDLKSRLTLALVFQMRGLSDEDKLRALQLRASRRGLHLTDEVGHFILTRGARSMSALFDLLERLDQASLQAQRKLTIPFLKETLGW”, the “soluble on expression in E. coli” value is recorded as “not soluble”.
Next, “MSDHDRDFDVVVVGGGHNGLVAAAYLARAGLRVRLLERLAQTGGAAVSIQAFDGVEVALSRYSYLVSLLPSRIVADLGAPVRLARRPFSSYTPAPATAGRSGLLIGPTGEPRAAHLAAIGAAPDAHGFAAFYRRCRLVTARLWPTLIEPLRTREQARRDIVEYGGHEAAAAWQAMVDEPIGHAIAGAVANDLLRGVIATDALIGTFARMHEPSLMQNICFLYHLVGGGTGVWHVPIGGMGSVTSALATAAARHGAEIVTGADVFALDPDGTVRYHSDGSDGAEHLVRGRFVLVGVTPAVLASLLGEPVAALAPGAQVKVNMVVRRLPRLRDDSVTPQQAFAGTFHVNETWSQLDAAYSQAASGRLPDPLPCEAYCHSLTDPSILSARLRDAGAQTLTVFGLHTPHSVFGDTEGLAERLTAAVLASLNSVLAEPIQDVLWTDAQSKPCIETTTTLDLQRTLGMTGGNIFHGALSWPFADNDDPLDTPARQWGVATDHERIMLCGSGARRGGAVSGIGGHNAAMAVLACLASRRKSPLEHHHHHH”: “not soluble”; “MNITNEREDGEKMGSKNYTDVLIAGKIYTLGGLEEETYLQQVASYLNDKIAGLHRQDGFRKQPEDYQNVMTYLNIADDYFKEREHAGLLAVQKEELEKETYRLKHELVSTQMKLEAMRAELEKYKALETLEHSRGKEAEKEEQARK”: “soluble”; “MTINTEVFIRRNKLRRHFESEFRQINNEIREASKAAGVSSFHLKYSQALLDRAIQREIDETYVFELFHKIKDHVLEVNEFLSMPPRPDIDEDFIDGVEYRPGRLEITDGNLWLGFTVCKPNEKFKDPSLQCRMAIINSRRLPGKASKAVIKTQ”: “soluble”.
For “MNIKKLAILGTLATTFSFEAFASTGMPKIEELTGDTRTACEVILCLSSAQGRGIKECQAPLRKYFSIRAKKWHKTLAKRRAFLDLCPAANENAKMSALTTAIQHQEYACDAGTLNSRTETRRNWVRRSSEDGGSFSRRLVRTQAYIPDFCKALYDHEFTEYKQIQKPKYVCDANKWYSQADWNRGFERVEVSRKWNHREDRYDIQYKDVPIKKDCWELEHHHHHH”, the “soluble on expression in E. coli” value is given as “not soluble”.
Consider “MSLATSYVGTVAGEKITTKEFKYFLGYVKIQMENDAQLQDQASKEAFWDSKIEGVDAKELAKQKALDSCKEFKIQLLKARERGLFLNDKDMQEIENSITTLLNQMAQFDQAAKNTGVEVMSAEEMLKDTYGVTIQEYKEILKDLRLVLKLVEDEQKNITITEEELRNRYNENKDVFDKITVRHIIFYTINPKTDVSLSEDAKKKAYENAKKALERANKGEDMEALALELSEDSGVEGNKGILEINSLKVNEPKLSNLVKWAYEHKVGDTDIVETGYGYHVVKIEKRTEYKDVVQNVKNVILSERYNQILGQWKQEPQYDLKKNEFALKRIKEGHHHHHH”, for which the “soluble on expression in E. coli” value was “soluble”.
Next, “MDTFEKLDKVDLQILRTLQENARLTTKELAARVSLSSTPVFERLKRLESGGYIKKYIAVLDAEKLNQGFVVFCSVKLRRLNRDIAAEFTRIIQDIPEVTECYNISGSYDYLLKIHAPNMKYYQEFILNVLGTIDSLGSLESTFVMAEVKHRYGIHI”: “soluble”.
Next, “SMSAGPWKMVVWDEDGFQGRRHEFTAECPSVLELGFETVRSLKVLSGAWVGFEHAGFQGQQYILERGEYPSWDAWGGNTAYPAERLTSFRPAACANHRDSRLTIFEQENFLGKKGELSDDYPSLQAMGWEGNEVGSFHVHSGAWVCSQFPGYRGFQYVLECDHHSGDYKHFREWGSHAPTFQVQSIRRIQQ”: “soluble”; “MSLNDKAILVGVDGSHASYKATWWAANYAKHAGLTLQIVCAYSLPSYAAVSFDATYTAMGDDNAAHNDAQEILSKAKAIADEQGVEASTLIVTGDPASVFVELSRNYNLIVIGNRGKGGLAERLLGTTSSSLPAYAYCPIVVVPYTDDEGNLMHLNNTITKVAVGSDESKWGLKALEIAAAFADSWGAELDVISAVPNMKGSEDEGVMASFQEDLDVRIKPLEAAYPSLKINKQIVPGPAAGALTKASYDHDVVVVGSRGRGGFTGLLLGSTSQGLLQHAVGPVYVVPRKYVEAAETRLDTVPSSPADVTPKAIDDIKGVEEVPVDKAKPEVVEAIETKIDPDREGHHHHHH”: “soluble”; “MSLNDIIEQLQELSETVPVPLELPTFEQLVEVEEQILIGLPNDLKEFLMYGSDVIYGTLEPVTAADPSSHTYLPEVACYAWSIGLPREQIAICQIGDSFYCIDEESQVMFWKKGRFSDKVWESFWHWAEDVWLNREGHHHHHH”: “soluble”.
The entry for “MQRVDLNSDLGESFGAYTIGQDDRVLEHVTSANIACGYHAGDHNVMARTVKLAADKGMGIGAHPGFPDLLGFGRRNIQTDHKDIYNFIVYQVAALNGFCQLHRVRMQHVKPHGALYNMAAKDRVIAEAIAEAIYDIDPSLILFGLSGSELIKAGKKLGLTVANEVFADRTYQPDGTLTPRSEANALIKESERATEQVIQMVKESKVIAVDGSHIPIEADTICVHGDSPTALSFIERLHAQLQVEGVTVTKVSDFLFKLEHHHHHH” is “not soluble”; for “MSQEQVEMIYAKTIEQILEMTGNATANFLPVLGVKSIEMAIGQMEEYLEMLKNLRVDYEKEPNLQSCMSPRLNDSMLIHRNRLARTSKSRLALYRTSPEIARFSRGSPDDIENENLSMSKIRSITEETSILDPTLCMDETTHQRGFLADVSDMNGTVRSRMPSFNFNHISPVPAEKTRRHSVLNVTTDFDVDLSSLCEPSQIEENSGQILFQNVLESALRTPNANNNTILLTDSEVTPVNISNLWNVKLRPGSNRKIDNGIRKEIQRQLACDSQL” it is “not soluble”.
For the sequence “MNKFFSADKKGGEKRRKKSKKKVRIVGMSEIGIWRQDDTMRIVHLSVWCILKRTTASLSGNEWKLSTRHANDGYIVRSPPTISGPERLQENGYVIWILL”, the “soluble on expression in E. coli” value is “not soluble”.
Next, “RLHEILASGVYANHPSPLTIALGKDISGRPVVSDLAKMPHALVAGTTGSGKSVAINAIILSLVYKASPDNVRLILIDPKMLELSVYDGIPHLLTPVVTDMRDAASALNWCVAEMERRYKLMSALGVRNLAGYNQKVREAVKNEEPLTNPLNPVPGSPELLEEMPLIVVVIDELADLMMIVGKKVEKLIARLAQKARAAGIHLLLATQRPSV”: “not soluble”; “MAGTGHTPEEALALLKRGAEEIVPEEELLAKLKEGRPLTVKLGADPTRPDLHLGHAVVLRKMRQFQELGHKVVLIIGDFTGMIGDPSGRSKTRPPLTLEETRENAKTYVAQAGKILRQEPHLFELRYNSEWLEGLTFKEVVRLTSLMTVAQMLEREDFKKRYEAGIPISLHELLYPFAQAYDSVAIRADVEMGGTDQRFNLLVGREVQRAYGQSPQVCFLMPLLVGLDGREKMSKSLDNYIGLTEPPEAMFKKLMRVPDPLLPSYFRLLTDLEEEEIEALLKAGPVPAHRVLARLLTAAYALPQIPPRIDRAFYESLGYAWEAFGRDKEAGPEEVRRAEARYDEVAKGGIPEEIPEVTIPASELKEGRIWVARLFTLAGLTPSNAEARRLIQNRGLRLDGEVLTDPMLQVDLSRPRILQRGKDRFVRVRLSD”: “soluble”; “MAKLITLGEILIEFNALSPGPLRHVSYFEKHVAGSEANYCVAFIKQGNECGIIAKVGDDEFGYNAIEWLRGQGVDVSHMKIDPSAPTGIFFIQRHYPVPLKSESIYYRKGSAGSKLSPEDVDEEYVKSADLVHSSGITLAISSTAKEAVYKAFEIASNRSFDTNIRLKLWSAEEAKREILKLLSKFHLKFLITDTDDSKIILGESDPDKAAKAFSDYAEIIVMKLGPKGAIVYYDGKKYYSSGYQVPVEDVTGAGDALGGTFLSLYYKGFEMEKALDYAIVASTLNVMIRGDQENLPTTKDIETFLREMKK”: “soluble”.
On to “MGFMIEHWDFSTPMATQETTTAEHIQPNHWYHCERLHPDIRSWLEDNHVPRATVDHLLADESRPSFHPLDDDNFMLILRGINMNENASPEDMLSIRILYFQGALISTRKIPSRAIMEIRQALAEHKGPKSLASLLNQIIEGLNGKIDLYLDTIEETLNEFDVNDESTYNHIAAQKALISIKRFIRPQQYAIRDLIESESELVTSRPHQYRFAHNNITRINETIEFYLGEVALFQDEIKHNRDEKTNKNS”, for which the “soluble on expression in E. coli” value is recorded as “soluble”.
“DGSCTNTNSQLSANSKCEKSTLTNCYVDKSEVYGTTCTGSRFDGVTITTSTSTGSRISGPGCKISTCIITGGVPAPSAACKISGCTFSAN”: the “soluble on expression in E. coli” value is listed as “soluble”.
For “REGVFRAERQRKAGELIISREPLTGLDDAARSQALLALVRRKGLELLPWTPELRQWQARVALLRSLDIDKSATSEWPDLSDAQLLATLENWLMPYLGKVT”, the “soluble on expression in E. coli” value was “not soluble”.
Turning to ASDRQLGPPRMCEPSPREQLMESIRKGKELKQITPPEA, the “soluble on expression in E. coli” value is listed as “soluble”.
In the case of “SSKRKRKRSVQEGENPDDGVRGSPPEDYRLGQVASSLFRGEHHSRGGTGRLASLFSSLEPQIQPVYVPVPKQTIKKTKRNEEEESTSQIERPLSQEPAKKVKAKKKHTNAEKKLADRESALASADLEEEIHQKQGQKRKNSQPGVKVADRKILDDTEDTVVSQRKKIQINQEEERLKNERTVFVGNLPVTCNKKKLKSFFKEYGQIESVRFRSLIPAEGTLSKKLAAIKRKIHPDQKNINAYVVFKEESAATQALKRNGAQIADGFRIRVDLASETSSRDKRSVFVGNLPYKVEESAIEKHFLDCGSIMAVRIVRDKMTGIGKGFGYVLFENTDSVHLALKLNNSELMGRKLRVMRSVNKEKFKQQNSNPRLKNVSKPKQGLNFTSKTAEGHPKSLFIGEKAVLLKTKKKGQKKSGRPKKQRKQK”, the “soluble on expression in E. coli” value is recorded as “soluble”.
Consider “MGSDKIHHHHHHVNYPKVYTSEQACPINLVGETGQAVQISIHAPSQYICANCERILPDWKRQSFLRVVIVLQQSRYQLVKKTTEVESEKERLREKFMRFGCDLAFNLRDRGYLTDLIDPRTGYPLLSHPGAIPHDDTAVVKALLNYPVIKNQCRVLVHPEWGAAVYPSILISEAPPILIEWVTKGIAAMHGWKEISH”, for which the “soluble on expression in E. coli” value is reported as “not soluble”.
Regarding “GMPNFSKNEEVLFSAVNEIFEEKIPFNKIIGLKVRFISPEQVKLSFEMRDELIGNAIRRMLYGGVISSAIDMTAGLAAFMGFQEKMSGKPMEEKLAMIGRLSTMSLHVEYLRPGLGREFVCTGYNVRTGNKVAVIRTELMNDQDELIAVGSVSYILV”, the “soluble on expression in E. coli” value is recorded as “soluble”.
The entry for “MGSDKIHHHHHHMKISVSKNDLENALRYLQAFLDKKDASSIASHIHLEVIKEKLFLKASDSDIGLKSYIFTQSSDKEGVGTINGKKFLDIISCLKDSNIILETKDDSLAIKQNKSSFKLPMFDADEFPEFPVIDPKVSIEVNAPFLVDAFKKIAPVIEQTSHKRELAGILMQFDQKHQTLSVVGTDTKRLSYTQLEKISIHSTEEDISCILPKRALLEILKLFYENFSFKSDGMLAVIENEMHTFFTKLIDGNYPDYQKILPKEYISSFTLGKEEFKESIKLCSSLSSTIKLTLEKNNALFESLDSEHSETAKTSVEIEKGLDIEKAFHLGVNAKFFLEALNALGTTQFVLRCNEPSSPFLIQESLDEKQSHLNAKISTLMMPITL” is “not soluble”.
